Laboratory results reported in FireProtDB (doi:10.1038/s41589-020-0556-3).
Where “and” joins values, the source holds several entries; their conditions need not be identical. Identical values can stand only once.

B1: Barstar, P11540 (parent)
chain: MKKAVINGEQIRSISDLHQTLKKELALPEYYGENLDALWDCLTGWVEYPLVLEWRQFEQSKQLTENGAESVLQVFREAKAEGCDITIILS

Variants of: B1
Settings: Bacillus amyloliquefaciens; pH 7.5; 25 °C; Urea; fluorescence; HEPES; KCL / MgOAc 150000 / 15000; transition: 2; structure 1BTA; whole UniProt chain shown

| Variant | denaturant m value | denaturant midpoint (higher = more stable) | unfolding free energy [kcal/mol] |
| --- | --- | --- | --- |
| MKAAVINGEQIRSISDLHQTLKKELALPEYYGENLDALWDCLTGWVEYPLVLEWRQFEQSKQLTENGAESVLQVFREAKAEGCDITIILS [K3A] | 1.06 kcal/mol/M and 0.59 kcal/mol/M | 4.97 M and 2.52 M | 5.27 |
| MKKAVINGEQIRSISDLHQTLKKELALPEYYGENLDALWDCLTGWVEYPLVLEWRQFEQSAQLTENGAESVLQVFREAKAEGCDITIILS [K61A] | 0.96 kcal/mol/M and 0.68 kcal/mol/M | 4.41 M and 2.51 M | 4.25 |
| MKKAVINGEQIRSISDLHQTLKKELALPEYYGENLDALWDCLTGWVEYPLVLEWRQFEQSAQLTENGAESVLQVFREAKAAGCDITIILS [K61A E81A] | 1.16 kcal/mol/M and 0.7 kcal/mol/M | 6.02 M and 3.72 M | 6.99 |
| MKKAVINGEQIRSISDLHQTLKKELALPEYYGENLDALWDCLTGWVEYPLVLEWRQFEQSKQLTENGAESVLQVFREAAAEGCDITIILS [K79A] | 0.89 kcal/mol/M and 0.48 kcal/mol/M | 4.65 M and 4.24 M | 4.16 |
